From patent US20230313187A1, “MODIFICATIONS OF MAMMALIAN CELLS USING ARTIFICIAL MICRO-RNA TO ALTER THEIR PROPERTIES AND THE COMPOSITIONS OF THEIR PRODUCTS” (DNA TWOPOINTO INC., priority 2020, published 2023) come the findings set out here.

The test system of data set [1] is Cricetulus griseus alpha-(1,6)-fucosyl transferase (FUT8) mRNA. Nature of the data set: Antibody titer and fucosylation with different numbers of amiRNA hairpins in the 3' UTR of the glutamine synthetase selectable marker. The class given is cell-based. To be noted: for antibody titer: weaker (PGK) promoter operably linked to glutamine synthetase, amiRNA in 3' UTR; for antibody fucosylation: weaker (PGK) promoter, amiRNA in GS 3' UTR, natural level around 80-85%. An excerpt:
One- two- or three-hairpin amiRNAs were incorporated into the 3′ UTR of a glutamine synthetase selectable marker on a transposon. The multi-hairpin amiRNA with nucleotide sequence SEQ ID NO: 194 comprised three hairpins as described in Section 6.1.1.1.
These amiRNA sequences were placed to the 3′ of an open reading frame encoding a glutamine synthetase protein (with polypeptide sequence SEQ ID NO: 307) and followed by a human globin polyadenylation sequence. The amiRNA genes were cloned into a transposon vector in which they were operably linked to a Pol II promoter. The transposon further comprised genes encoding an antibody with mature light chain polypeptide sequence SEQ ID NO: 286 and mature heavy chain polypeptide sequence SEQ ID NO: 288. The transposon further comprised a left end comprising a 5′-TTAA-3′ target sequence immediately followed by an ITR with nucleotide sequence SEQ ID NO: 423 (which is an embodiment of SEQ ID NO: 421) and additional nucleotide sequence SEQ ID NO: 417 and a right end comprising nucleotide sequence SEQ ID NO: 419 immediately followed by an ITR with nucleotide sequence SEQ ID NO: 424 (which is an embodiment of SEQ ID NO: 422) immediately followed by a 5′-TTAA-3′ target sequence. The transposon was configured so that the multi-hairpin amiRNA, the glutamine synthetase gene and the genes for both antibody chains, as well as all necessary operably linked control elements were transposable by a corresponding transposase.
Transposons were co-transfected with mRNA encoding transposase with polypeptide sequence SEQ ID NO: 472 into a CHO cell line with no functional glutamine synthetase gene. The pool of transfected cells were grown in the absence of glutamine added to the media until their viability reached 95%. They were then grown in a 14 day fed-batch using Sigma Advanced Fed Batch media. Protein was purified from the culture supernatant using protein A affinity chromatography, reduced with dithiothreitol, and analyzed on an Agilent QTOF mass spectrometer. We integrated the area under the peaks at 50,456 Da (corresponding to the heavy chain modified by G0: the conserved heptasaccharide core composed of 2 N-acetylglucosamine, 3 mannose and 2 other N-acetylglucosamine residues that are β-1,2 linked to α-6 mannose and α-3 mannose, forming two arms) and 50,602 (corresponding to the heavy chain modified by G0F: the conserved heptasaccharide core plus a fucose residue) to calculate the relative proportion of fucosylated and afucosylated antibody.
Table 5. Inhibition of antibody fucosylation with different numbers of amiRNA hairpins. Transposons were constructed as described in Section 6.1.2.1. The SEQ ID NO of the amiRNA gene including the glutamine synthetase ORF and the globin polyA sequence is given in column A. The Pol II promoter shown in column B was operably linked to the amiRNA whose SEQ ID NO is shown in column C. The amiRNA comprised the number of hairpins shown in column D. Following a 14-day fed batch antibody production run, the culture supernatant contained the concentration of antibody shown in column E. The percentage of antibody that was afucosylated is shown in column F, the percentage that was fucosylated is shown in column G. BDL=below detection limit.

Data set [2] deals with Cricetulus griseus glutamine synthetase mRNA. Put plainly: Growth of CHO cell pools with amiRNA targeted toward glutamine synthetase in the absence of glutamine. The class given is cell-based. The settings on record: for VCD: glutamine-free media. An excerpt: The multi-hairpin amiRNA was cloned into a piggyBac-like transposon to the 3′ of a spacer polynucleotide with nucleotide sequence SEQ ID NO: 280, and operably linked to a PGK promoter with nucleotide sequence SEQ ID NO: 386. The nucleotide sequence of the multi-hairpin amiRNA gene is given as SEQ ID NO: 540. The piggyBac-like transposon further comprised a selectable marker conferring resistance to G418/neomycin with amino acid sequence SEQ ID NO: 296. The piggyBac-like transposon further comprised a target sequence 5′-TTAA-3′ immediately followed by an ITR with nucleotide sequence SEQ ID NO: 448 (which is an embodiment of SEQ ID NO: 564), immediately followed by further transposon end sequences with nucleotide sequence SEQ ID NO: 445. The piggyBac-like transposon further comprised nucleotide sequence SEQ ID NO: 446, immediately followed by a second ITR with nucleotide sequence SEQ ID NO: 449 (which is an embodiment of SEQ ID NO: 447), immediately followed by the target sequence 5′-TTAA-3′. The transposon was configured so that the multi-hairpin amiRNA, the spacer polynucleotide and the gene encoding the selectable marker, as well as all necessary operably linked control elements, were transposable by a corresponding transposase. The full sequence of the transposon comprising the multi-hairpin amiRNA gene and selectable marker is given as SEQ ID NO: 544.
The transposon was co-transfected with mRNA encoding transposase with polypeptide sequence SEQ ID NO: 523 into a CHO cell line with intact glutamine synthetase genes. The pool of transfected cells were grown in the presence of 600 or 1,000 μg/ml G418 plus 5 mM glutamine until their viability reached 95%.
After the transfected cell pools had recovered to >95% viability, we tested their ability to grow in the absence of glutamine. Cells were transferred to Sigma Advanced Fed Batch media lacking glutamine to an initial a density of 0.3×10^6 live cells/ml. The viable cell density was measured at various times after the removal of glutamine. On the fourth day, cells were diluted back to a density of 0.3×10^6 live cells/ml in media lacking glutamine, to ensure that growing cells had sufficient nutrients. […] After this, the viable cell density approximately tripled between dilution on day 4 and day 6 and doubled again between day 6 and day 8. […] The viable cell density then began to fall for both pools transfected with a transposon comprising the multi-hairpin amiRNA with nucleotide sequence SEQ ID NO: 209 at day 6 (Table 7 columns B and C, compare rows 6, 7 and 8). By day 8 the viable cell density had fallen precipitously to less than 0.02×10^6 live cells/ml. There was no difference between the growth of cells transfected with the control transposon or the transposon comprising the multi-hairpin amiRNA with nucleotide sequence SEQ ID NO: 209 in the presence of glutamine: all pools grew well. We conclude that a multi-hairpin amiRNA comprising guide strand sequences complementary to three different sequences within the CHO glutamine synthetase mRNA target (nucleotide sequence SEQ ID NO: 10) can be used to make a CHO cell dependent upon exogenously provided glutamine. The cells in this pool had been selected with neomycin/G418, which allowed growth of cells whose genomes comprised the transposon comprising the multi-hairpin amiRNA. […] By using the multi-hairpin amiRNA gene we were able to produce a pool of cells in which expression of the essential metabolic enzyme glutamine synthetase was inhibited to a level that prevents growth of the cell in greater than 93% of the cells in the pool.
The multi-hairpin amiRNA with nucleotide sequence SEQ ID NO: 209 was also cloned into three other piggyBac-like transposons, also to the 3′ of a spacer polynucleotide with nucleotide sequence SEQ ID NO: 280. In the first transposon the multi-hairpin amiRNA was operably linked to a PGK promoter with nucleotide sequence SEQ ID NO: 385. […]

B1: SEQ ID NO: 196: two-hairpin amiRNA, guides SEQ ID NOs 23 and 24 complementary to Cricetulus griseus FUT8 mRNA (nucleic acid)
chain: ATCTGATCTTCTGAAGAAAATATATTTCTTTTTATTCATAGCTCTTAACTAGTGGTGATAGCAATGTCAGCAGTGCCTGGAAAAACATCCATTCTCATTCGTGAAGCCACAGATGGAATGAGAATAGATGTTTTTCAAAGTAAGGTTGACCATACTCTACTCTAGTTATATTCTTTAGGCACGAATGTGTGTTTAAAAAAAATAAAAACTAGTGGTGATAGCAATGTCAGCAGTGCCTTTAAATTACATAATGTGGCAGTGTGAAGCCACAGATGACTGCCACATCATGTAATTTACAAGTAAGGTTGACCATACTCTACTCTAGAGTTGTGTTTTAATGTATATTAATGTTACTAATGTGTTTTCAGTTTTATTGATAGTCTTTTCAGTATTATTGATAATCTT
With B1, in data set [1], the antibody titer came to 770 mg/L and the antibody fucosylation amounted to 10%.

B2: SEQ ID NO: 209: three-hairpin amiRNA, guides SEQ ID NOs 53, 54, 55 complementary to Cricetulus griseus glutamine synthetase mRNA (nucleic acid)
chain: ATCTGATCTTCTGAAGAAAATATATTTCTTTTTATTCATAGCTCTTAACTAGTGGTGATAGCAATGTCAGCAGTGCCTTTGAGTTACAATGAGACAGCTGGTGAAGCCACAGATGCAGCTGTCTCCTTGTAACTCACAAGTAAGGTTGACCATACTCTACTCTAGAGTTGTGTTTTAATGTATATTAATGTTACTAATGTGTTTACTAGTGGTGATAGCAATGTCAGCAGTGCCTTATTCTGACCAATAAAAGCAAGGTGAAGCCACAGATGCTTGCTTTTACTGGTCAGAATCAAGTAAGGTTGACCATACTCTACTCTAGGTTATTTTTAGTATGATTCTGTAAAAATGAATTAATACTAACTAGTGGTGATAGCAATGTCAGCAGTGCCTTTTTACCTGAAGAACTAGCAGCGTGAAGCCACAGATGGCTGCTAGTTATTCAGGTAAACAAGTAAGGTTGACCATACTCTACTCTAGTCAGTTTTATTGATAGTCTTTTCAGTATTATTGATAATCTT
Take B2: the “cells in the pool in which glutamine synthetase is inhibited to a level that prevents growth” value in data set [2] (G418-selected pool) is given as “greater than 93%”. Further, the “dependence on exogenously supplied glutamine” value in data set [2] (amiRNA operably linked to a promoter and integrated into the CHO genome, also PGK, EF1, EEF2 promoters in other transposons, listed as 209) was “completely dependent upon exogenously supplied glutamine”. In addition, the “increase in viable cell density” value in data set [2] (between day 1 and day 4 without glutamine, pool selected with 600 μg/ml G418) is “less than 50%”; in data set [2] (to day 4 without glutamine, pool selected with 1,000 μg/ml G418) it was “failed to increase their viable cell density at all”. In data set [2] (by day 8 without glutamine), the cells still alive entry is “less than 7%”. Further, the viable cell density result in data set [2] (by day 8 without glutamine, both pools) is “less than 0.02 ×10^6 live cells/ml”. In addition, the VCD in data set [2] (600 ug/ml G418 pool, day 1) is recorded as 0.45 x 10^6 live cells/ml; in data set [2] (600 ug/ml G418 pool, day 4 after dilution), 0.30 x 10^6 live cells/ml; in data set [2] (600 ug/ml G418 pool, day 4 before dilution), 0.47 x 10^6 live cells/ml; in data set [2] (600 ug/ml G418 pool, day 6), 0.21 x 10^6 live cells/ml; in data set [2] (600 ug/ml G418 pool, day 8), 0.01 x 10^6 live cells/ml; in data set [2] (1000 ug/ml G418 pool, day 1) it was 0.31 x 10^6 live cells/ml. In addition, the VCD is given as 0.30 x 10^6 live cells/ml in data set [2] (1000 ug/ml G418 pool, day 4 after dilution); 0.30 x 10^6 live cells/ml in data set [2] (1000 ug/ml G418 pool, day 4 before dilution); 0.26 x 10^6 live cells/ml in data set [2] (1000 ug/ml G418 pool, day 6); 0.02 x 10^6 live cells/ml in data set [2] (1000 ug/ml G418 pool, day 8); 0.30 x 10^6 live cells/ml in data set [2] (pool selected with 600 ug/ml G418, day 0 (inoculation)); 0.30 x 10^6 live cells/ml in data set [2] (pool selected with 1000 ug/ml G418, day 0 (inoculation)).

B3: SEQ ID NO: 197: single hairpin amiRNA, guide SEQ ID NO: 23 complementary to Cricetulus griseus FUT8 mRNA (nucleic acid)
chain: ATCTGATCTTCTGAAGAAAATATATTTCTTTTTATTCATAGCTCTTAACTAGTGGTGATAGCAATGTCAGCAGTGCCTGGAAAAACATCCATTCTCATTCGTGAAGCCACAGATGGAATGAGAATAGATGTTTTTCAAAGTAAGGTTGACCATACTCTACTCTAGAGTTGTGTTTTAATGTATATTAATGTTACTAATGTGTTTTCAGTTTTATTGATAGTCTTTTCAGTATTATTGATAATCTT
Regarding B3, in data set [1], the antibody titer worked out at 514 mg/L and the antibody fucosylation entry was “about 50%”.
